# Source: paper PMC5241945, “A new enzyme-linked immunosorbent assay (ELISA) for human free and bound kallikrein 9” (Clinical Proteomics, 2017)
# T1: human recombinant serpinA3 inhibitor (R&D systems) (human, UniProt P01011 24-423)
# T1 construct: alpha-1-antichymotrypsin (serpinA3), human, recombinant; also called a1-antichymotrypsin; ACT; source: bought: R&D Systems
# T1 sequence (looked up): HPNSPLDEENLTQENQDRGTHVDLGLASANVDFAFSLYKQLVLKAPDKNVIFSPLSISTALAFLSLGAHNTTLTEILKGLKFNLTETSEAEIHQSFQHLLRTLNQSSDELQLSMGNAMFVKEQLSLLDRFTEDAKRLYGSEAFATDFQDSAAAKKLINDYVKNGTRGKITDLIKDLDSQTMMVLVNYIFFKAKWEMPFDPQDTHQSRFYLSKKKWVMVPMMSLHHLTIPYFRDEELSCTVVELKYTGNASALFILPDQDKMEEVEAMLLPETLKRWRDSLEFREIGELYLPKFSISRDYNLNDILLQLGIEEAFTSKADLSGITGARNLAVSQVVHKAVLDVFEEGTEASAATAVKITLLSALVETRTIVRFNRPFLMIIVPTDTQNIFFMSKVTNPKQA
# Molecular target: T1, human recombinant serpinA3 inhibitor …
# Assay: ELISA; mat-KLK9 (0.5 μg) incubated alone or with recombinant serpinA3 at molar ratios KLK9/serpinA3 1/0.2, 1/0.5, 1/1 and 1/2 in 50 mM Tris-HCl pH 8.0, 1 h, 37 °C; the free KLK9 left was then measured by the sandwich ELISA (28ED436 / biotinylated 4ED28.2) as % recovery against the control without inhibitor
# Conditions: both partners purified
binder,measurement,value
"mature form of KLK9 (mat-KLK9) (aa 23–250), recombinant (enzyme, human, UniProt Q9UKQ9 23-250, looked up, Human tissue kallikrein 9 (KLK9), UniProt Q9UKQ9 (KLK9_HUMAN); mature form aa 23-250 of the pre-pro-enzyme (1-250), lacking the signal peptide and the pro-segment; Glycosylated: migrates at ~42 kDa, ~25 kDa after PNGase F; also called mature KLK9; kallikrein 9) AIGAEECRPNSQPWQAGLFHLTRLFCGATLISDRWLLTAAHCRKPYLWVRLGEHHLWKWEGPEQLFRVTDFFPHPGFNKDLSANDHNDDIMLIRLPRQARLSPAVQPLNLSQTCVSPGMQCLISGWGAVSSPKALFPVTLQCANISILENKLCHWAYPGHISDSMLCAGLWEGGRGSCQGDSGGPLVCNGTLAGVVSGGAEPCSRPRRPAVYTSVCHYLDWIQEIMEN",binding result,binds
